Test results published in US20050249750A1.
Where no end group is shown, it is not given here.

T1: soluble DR 1 (DRB1*0101) class II molecules purified from HOM-2 EBV-B cells (human), P01903
T1 chain 1: not shown
T1 chain 2: not shown

T2: soluble DR 8 (DRB1*0801) class II molecules purified from BM9 EBV-B cells (human), P01903
T2 chain 1: not shown
T2 chain 2: not shown

T3: soluble DR 3 (DRB1*0301) class II molecules purified from WT49 EBV-B cells (human), P01903
T3 chain 1: not shown
T3 chain 2: not shown

T4: soluble DR 7 (DRB1*0701) class II molecules purified from EKR EBV-B cells (human), P01903
T4 chain 1: not shown
T4 chain 2: not shown

T5: soluble DR 2a (DRB5*0101) molecules isolated from L cells transfectant L416.3 (human), P01903
T5 chain 1: not shown
T5 chain 2: not shown

T6: soluble DR4 (DRB1*0401) class II molecules purified from BSM or PREISS EBV-B cells (human), P01903
T6 chain 1: not shown
T6 chain 2: not shown

T7: DR molecule DRA1*0101/DRB1*0701 on transfected murine L cells (human), P01903
T7 chain 1: not shown
T7 chain 2: not shown

T8: DR molecule DRA1*0101/DRB1*0401 on transfected murine L cells (human), P01903
T8 chain 1: not shown
T8 chain 2: not shown


Key:
[1] = biological target: T1, soluble DR 1 (DRB1*0101) class II …; test: peptide competition ELISA, soluble DR 1, biotinylated indicator GFK(A)7
[2] = biological target: T2, soluble DR 8 (DRB1*0801) class II …; test: peptide competition ELISA, soluble DR 8, biotinylated indicator GYR(A)6L
[3] = biological target: T3, soluble DR 3 (DRB1*0301) class II …; test: peptide competition ELISA, soluble DR 3, biotinylated indicator IAYD(A)5
[4] = biological target: T4, soluble DR 7 (DRB1*0701) class II …; test: peptide competition ELISA, soluble DR 7, biotinylated indicator GFK(A)7, pH 5
[5] = biological target: T5, soluble DR 2a (DRB5*0101) molecules …
[6] = biological target: T6, soluble DR4 (DRB1*0401) class II …; test: peptide competition ELISA, soluble DR4, biotinylated indicator GFK(A)7
[7] = biological target: soluble DR 11 (DRB1*1101) class II molecules purified from SWEIG EBV-B cells (human), P01903; test: peptide competition ELISA, soluble DR 11, biotinylated indicator TT831-843
[8] = biological target: T6, soluble DR4 (DRB1*0401) class II …; test: peptide competition ELISA, soluble DR 4, biotinylated indicator UD4
[9] = biological target: T7, DR molecule DRA1*0101/DRB1*0701 on …; test: FACS, biotinylated peptide 100 µg/ml on DR-transfected murine L cells
[10] = biological target: T8, DR molecule DRA1*0101/DRB1*0401 on …; test: as above

Binder	IC50 [1] [µM]	IC50 [2] [µM]	IC50 [3] [µM]	IC50 [4] [µM]	IC50 [5] [µM]	IC50 [6] [µM]	IC50 [7] [µM]	IC50 [8] [µM]	MFC (mean fluorescence channel) [9] [MFC]	MFC (mean fluorescence channel) [10] [MFC]
DPNANPNVDPNANPNV (modifications not checked)	> 100	> 100	> 100	> 100	> 100	> 100	> 100	> 100	–	–
DPNANPNVDPNANPNV (not fully specified (N-terminus)) [NH2 terminal biotinylated T1 peptide]	–	–	–	–	–	–	–	–	35.7	18.9
